Results from patent US20250296992A1 (Genmab, published 2025).
Residue numbers refer to the chain shown, from its start.

How the values were obtained:
[1] = target: T1, human SLITRK6 extracellular domain linked to his tag (human, UniProt Q9H5Y7 27-608); assay: ELISA, coated antigen
T1 construct: extracellular domain; also called huSLITRK6; Hu SLITRK6; not shown: his tag

[2] = target: T2, cynomolgus monkey SLITRK6 extracellular domain linked to his tag (cynomolgus monkey, UniProt G7PVK4 27-608); assay: ELISA, coated antigen
T2 construct: extracellular domain; also called cynoSLITRK6; Cyno SLITRK6; not shown: his tag

rat SLITRK6 [3] = target: T3, rat SLITRK6 (rat, UniProt D3ZP44 27-607); assay: ELISA, coated antigen
T3 construct: extracellular domain; not shown: his tag

human SLITRK6 on cells [4] = target: T4, human SLITRK6 on cells (human, UniProt Q9H5Y7 27-841); assay: flow cytometry on RT4 cells
T4 construct: whole, on cells
Description: (§1) The binding activity of mAbs was evaluated by flow cytometer (Beckman, Cytoflex). Specifically, cells were incubated with 50 μL of mAbs or ADCs in series dilutions in PBS containing 1% BSA at 4° C. for 30 minutes. The cells were washed twice with PBS containing 1% BSA, stained with PE-conjugated anti human Fc in PBS containing 1% BSA and then incubated at 4° C. for 20 min. After that the cells were washed twice with PBS and analyzed by a flow cytometer.

human SLITRK6 on cells [5] = target: T4, human SLITRK6 on cells; assay: flow cytometry on RT4 cells; remark: listed apart in the source
Description: (§2) The binding activity of mAbs and ADCs was evaluated by flow cytometer (Beckman, Cytoflex). Specifically, cells were incubated with 50 μL of mAbs or ADCs in series dilutions in PBS containing 1% BSA at 4° C. for 30 min. The cells were washed twice with PBS containing 1% BSA, stained with PE-conjugated anti human Fc in PBS containing 1% BSA and then incubated at 4° C. for 20 min. After that the cells were washed twice with PBS and analyzed by a flow cytometer.

human SLITRK6 on cells [6] = target: T4, human SLITRK6 on cells; assay: flow cytometry on SW780 cells
Description: as §1

human SLITRK6 on cells [7] = target: T4, human SLITRK6 on cells; assay: flow cytometry on SW780 cells; remark: listed apart in the source
Description: as §2

human SLITRK6 on cells [8] = target: T4, human SLITRK6 on cells; assay: flow cytometry on CHP-212 cells
Description: as §1

human SLITRK6 on cells [9] = target: T4, human SLITRK6 on cells; assay: flow cytometry on CHP-212 cells; remark: listed apart in the source
Description: as §2

human SLITRK6 on cells [10] = target: T4, human SLITRK6 on cells; assay: flow cytometry on RT112/84 cells
Description: as §1

human SLITRK6 on cells [11] = target: T4, human SLITRK6 on cells; assay: flow cytometry on 293F-SLITRK6-C9 cells
Description: as §2

human SLITRK6 on cells [12] = target: T4, human SLITRK6 on cells; assay: flow cytometry on 293F-huSLITRK6-C9 cells
Description: The binding activity of mAbs was evaluated by flow cytometer (Beckman, Cytoflex). Specifically, cells were incubated with 50 μL of mAbs or ADCs in series dilutions in PBS containing 1% BSA at 4° C. for 30 min. The cells were washed twice with PBS containing 1% BSA, stained with PE-conjugated anti human Fc in PBS containing 1% BSA and then incubated at 4° C. for 20 min. After that the cells were washed twice with PBS and analyzed by a flow cytometer.

human SLITRK6 on cells [13] = target: T4, human SLITRK6 on cells; assay: flow cytometry on RT4 cells, PE-conjugated anti-human Fc
Description: (§3) Specifically, cells were incubated with 50 μL of mAbs or ADCs in series dilutions in PBS containing 1% BSA at 4° C. for 30 min. The cells were washed twice with PBS containing 1% BSA, stained with PE-conjugated anti human Fc in PBS containing 1% BSA and then incubated at 4° C. for 20 min. After that the cells were washed twice with PBS and analyzed by a flow cytometer.

human SLITRK6 on cells [14] = target: T4, human SLITRK6 on cells; assay: as above; remark: listed apart in the source
Description: as §2

human SLITRK6 on cells [15] = target: T4, human SLITRK6 on cells; assay: flow cytometry on SW780 cells, PE-conjugated anti-human Fc
Description: as §3

human SLITRK6 on cells [16] = target: T4, human SLITRK6 on cells; assay: as above; remark: listed apart in the source
Description: as §2

[17] = target: T1, human SLITRK6 extracellular domain …; assay: BLI; antigen ECD-his on anti-his tips, antibody as analyte; 1:1 fit;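 also: antibody at several concentrations, 180 s association then 300 s dissociation in Tris buffer at pH 6 or 7.5, rate constants from global fitting, KD computed as koff/kon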
Description: (§4) Binding kinetic of antibody-antigen was characterized by the bio-layer interferometry (BLI). 100 nM of SLITRK6′ extracellular domain linked to his tag was immobilized on anti-his biosensor tips (Fortebio). The sensors were rinsed with the buffer (50 mM Tris-AcOH, pH 6 or 7.5, 0.05% v/v surfactant P20) for 10 min to remove the unbound molecules, then dipped in the antibody solutions at different concentrations for 180 seconds and interspersed by a rinsing step in the buffer solution for 300 seconds. Binding affinity was calculated using ForteBio Data Acquisition 6.3 software (ForteBio) and was derived by fitting the kinetic data to a 1:1 Langmuir binding model utilizing global fitting algorithms. The dissociation or association equilibrium constant KD was calculated from the binding rate constants as KD=koff/kₒₙ(where koff and kₒₙ represent the dissociation kinetic constant and the association kinetic constant, respectively).

[18] = target: T2, cynomolgus monkey SLITRK6 extracellular …; assay: as above
Description: as §4

human SLITRK6 on cells [19] = target: T4, human SLITRK6 on cells; assay: flow cytometry on CHP-212 cells, PE-conjugated anti-human Fc
Description: as §3

mouse SLITRK6 = target: T5, mouse SLITRK6 (mouse, UniProt Q8C110 23-609); assay: BLI; antigen-his on anti-his tips, antibody or ADC as analyte; 1:1 fit
T5 construct: extracellular domain; also called Mu SLITRK6; not shown: his tag

[20] = target: T1, human SLITRK6 extracellular domain …; assay: as above
Description: (§5) Binding kinetic of antibody-antigen was characterized by the bio-layer interferometry (BLI). 100 nM of SLITRK6′ extracellular domain linked to his tag was immobilized on anti-his biosensor tips (Fortebio). The sensors were rinsed with the buffer (50 mM Tris-AcOH, pH 6 or 7.5, 0.05% v/v surfactant P20) for 10 min to remove the unbound molecules, then dipped in the antibody solutions at different concentrations for 180 seconds and interspersed by a rinsing step in the buffer solution for 300 seconds. Binding affinity was calculated using ForteBio Data Acquisition 6.3 software (ForteBio) and was derived by fitting the kinetic data to a 1:1 Langmuir binding model utilizing global fitting algorithms. The dissociation or association equilibrium constant KD was calculated from the binding rate constants as KD=koff/kₒₙ (where koff and kₒₙ represent the dissociation kinetic constant and the association kinetic constant, respectively).

[21] = target: T2, cynomolgus monkey SLITRK6 extracellular …; assay: as above
Description: as §5

rat SLITRK6 [22] = target: T3, rat SLITRK6; assay: as above
Description: as §5

human SLITRK6 on cells [23] = target: T4, human SLITRK6 on cells; assay: flow cytometry on 293F-huSLITRK6 cells, PE-conjugated anti-human Fc
Description: as §3

[24] = target: T1, human SLITRK6 extracellular domain …; assay: BLI binning on huSLITRK6-his; Ab1 = row antibody first, then Ab2 (competitor) = phA108
Description: (§6) Epitope binning was characterized by the bio-layer interferometry (BLI). 100 nM of human SLITRK6′ extracellular domain linked to his tag was immobilized on anti-his biosensor tips (Fortebio). The sensors were rinsed with the buffer (50 mM Tris-AcOH, pH 6 or 7.5, 0.05% v/v surfactant P20) for 30 seconds to remove the unbound molecules, then dipped in the 100 nM of antibody 1 solutions for 180 seconds and interspersed by a rinsing step in the buffer solution for 300 seconds. After that, the sensors were dipped in the 100 nM of antibody 2 solutions. The epitope cluster was calculated using ForteBio Data Acquisition 6.3 software.

[25] = target: T1, human SLITRK6 extracellular domain …; assay: BLI binning on huSLITRK6-his; Ab1 = row antibody first, then Ab2 (competitor) = phA290
Description: as §6

[26] = target: T1, human SLITRK6 extracellular domain …; assay: BLI binning on huSLITRK6-his; Ab1 = row antibody first, then Ab2 (competitor) = hu1H2-03
Description: as §6

[27] = target: T1, human SLITRK6 extracellular domain …; assay: BLI binning on huSLITRK6-his; Ab1 = row antibody first, then Ab2 (competitor) = hu1H2-13
Description: as §6

[28] = target: T1, human SLITRK6 extracellular domain …; assay: BLI binning on huSLITRK6-his; Ab1 = row antibody first, then Ab2 (competitor) = hu14G1-03
Description: as §6

[29] = target: T1, human SLITRK6 extracellular domain …; assay: BLI binning on huSLITRK6-his; Ab1 = row antibody first, then Ab2 (competitor) = Sirtratumab
Description: as §6

human SLITRK6 on cells [30] = target: T4, human SLITRK6 on cells; assay: flow cytometry on KYSE-30 cells, PE-conjugated anti-human Fc
Description: as §3

human SLITRK6 on cells [31] = target: T4, human SLITRK6 on cells; assay: flow cytometry on SCC-4 cells
Description: as §1

T5 sequence (Q8C110 23-609): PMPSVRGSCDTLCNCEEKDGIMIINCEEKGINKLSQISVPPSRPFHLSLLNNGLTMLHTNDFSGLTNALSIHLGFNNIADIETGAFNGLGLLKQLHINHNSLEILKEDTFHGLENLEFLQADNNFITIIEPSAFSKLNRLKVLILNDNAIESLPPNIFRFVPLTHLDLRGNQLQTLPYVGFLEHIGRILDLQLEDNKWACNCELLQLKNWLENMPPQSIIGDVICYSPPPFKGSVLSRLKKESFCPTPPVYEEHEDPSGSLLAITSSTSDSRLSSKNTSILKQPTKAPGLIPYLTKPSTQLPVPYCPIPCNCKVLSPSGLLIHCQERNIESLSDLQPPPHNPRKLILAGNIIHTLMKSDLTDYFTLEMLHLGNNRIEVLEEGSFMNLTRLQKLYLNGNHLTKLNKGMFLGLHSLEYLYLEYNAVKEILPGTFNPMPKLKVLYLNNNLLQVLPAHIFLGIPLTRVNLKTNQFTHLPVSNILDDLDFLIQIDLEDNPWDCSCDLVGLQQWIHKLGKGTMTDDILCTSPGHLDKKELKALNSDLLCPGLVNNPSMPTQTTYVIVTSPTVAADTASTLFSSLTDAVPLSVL

B1: Sirtratumab (antibody, V domains shown)
VH: QVQLVESGGGVVQPGRSLRLSCAASGFTFSSYGMHWVRQAPGKGLEWVAVIWYDGSNQYYADSVKGRFTISRDNSKNTLFLQMHSLRAEDTAVYYCARGLTSGRYGMDWGQGTTVTVSS
VL: DIVMTQSPLSLPVTPGEPASISCRSSQSLLLSHGFNYLDWYLQKPGQSPQLLIYLGSSRASGVPDRFSGSGSGTDFTLKISRVEAEDVGLYYCMQPLQIPWTFGQGTKVEIK
notes: Prior-art benchmark antibody; also called Sirtratuzumab
EC50 [1]: 0.06 nM
EC50 [2]: 0.06 nM
EC50 (rat SLITRK6 [3]): 0.88 nM
EC50 (human SLITRK6 on cells [4]): 0.2 nM
EC50 (human SLITRK6 on cells [5]): 0.26 nM
EC50 (human SLITRK6 on cells [6]): 0.33 nM
EC50 (human SLITRK6 on cells [7]): 0.39 nM
EC50 (human SLITRK6 on cells [8]): 0.21 nM
EC50 (human SLITRK6 on cells [9]): 0.25 nM
EC50 (human SLITRK6 on cells [10]): 0.2 nM
EC50 (human SLITRK6 on cells [11]): 1.41 nM
EC50 (human SLITRK6 on cells [12]): 1.41 nM
EC50 (read off the curve) (human SLITRK6 on cells [13]): ~0.2 nM
EC50 (read off the curve) (human SLITRK6 on cells [14]): ~0.3 nM
EC50 (read off the curve) (human SLITRK6 on cells [15]): ~0.2 nM
EC50 (read off the curve) (human SLITRK6 on cells [16]): ~0.3 nM
Kd [17]: 5 nM
koff [17]: 0.00416 s⁻¹
kon [17]: 831000 M⁻¹ s⁻¹
Kd [18]: 6.01 nM
koff [18]: 0.0037 s⁻¹
kon [18]: 615000 M⁻¹ s⁻¹
EC50 (read off the curve) (human SLITRK6 on cells [19]): ~0.1 nM
Kd (mouse SLITRK6): 3.5 nM
Kd [20]: 0.35 nM
Kd [21]: 1.2 nM
Kd (rat SLITRK6 [22]): 1.5 nM
EC50 (read off the curve) (human SLITRK6 on cells [23]): ~1 nM
epitope binning signal [24]: 0.252
epitope binning signal [25]: 0.256
epitope binning signal [26]: 0.281
epitope binning signal [27]: 0.282
epitope binning signal [28]: 0.244
epitope binning signal [29]: 0.0645

B2: AGS15E (antibody, V domains shown)
VH: B1 VH
VL: B1 VL
modifications: drug conjugate; drug-linker and positions not given
notes: also called ADC of Sirtratumab
EC50 (read off the curve) (human SLITRK6 on cells [13]): ~0.3 nM
EC50 (read off the curve) (human SLITRK6 on cells [14]): ~0.3 nM
EC50 (read off the curve) (human SLITRK6 on cells [15]): ~0.3 nM
EC50 (read off the curve) (human SLITRK6 on cells [16]): ~0.2 nM
EC50 (read off the curve) (human SLITRK6 on cells [19]): ~0.2 nM
EC50 (read off the curve) (human SLITRK6 on cells [30]): ~0.5 nM
Kd (mouse SLITRK6): 1.9 nM
Kd [20]: 0.3 nM
Kd [21]: 0.87 nM
Kd (rat SLITRK6 [22]): 1.2 nM
EC50 (read off the curve) (human SLITRK6 on cells [23]): ~1 nM

B3: phA290 (antibody, V domains shown)
VH: QVQLVQSGAEVKKPGASVKVSCKASGYTFTSYYMHWVRQAPGQGLEWMGIINPSGGSTSYAQKFQGRVTMTRDTSTSTVYMELSSLRSEDTAVYYCARGFTRYFDYWGQGTLVTVSA
VL: EIVMTQSPGTLSLSPGERATLSCRASQSVSKYLAWYQQRPGQAPRLLIYDASNRATGIPARFSGSGSGTDFTLTVSSLEPEDFAVYYCQQRYNWPLTFGGGTTVEIK
notes: From phage display, then full-length construction; Only the variable regions are tied to the name
EC50 [1]: 0.09 nM
EC50 [2]: 0.06 nM
EC50 (rat SLITRK6 [3]): 0.18 nM
EC50 (human SLITRK6 on cells [4]): 0.14 nM
EC50 (human SLITRK6 on cells [5]): 0.14 nM
EC50 (human SLITRK6 on cells [31]): 0.15 nM
EC50 (human SLITRK6 on cells [6]): 0.27 nM
EC50 (human SLITRK6 on cells [7]): 0.27 nM
EC50 (human SLITRK6 on cells [8]): 0.14 nM
EC50 (human SLITRK6 on cells [9]): 0.16 nM
EC50 (human SLITRK6 on cells [10]): 0.08 nM
EC50 (human SLITRK6 on cells [11]): 1.16 nM
EC50 (human SLITRK6 on cells [12]): 1.16 nM
Kd [17]: 1.06 nM
Kd [18]: 3.14 nM

B4: phA108 (antibody, V domains shown)
VH: QVQLVQSGAEVKKPGASVKVSCTASGYIFNDYYLHWVRQAPGQGLEWVGIINPSGGSPVYAQKFQGRVTMTRDTSTNTVYMELSSLRSEDTAVYYCARGMVRGVRLFDYWGQGTLVTVSA
VL: B3 VL with M4L, G9A, K31S, R39K, A43T, I58V, V75I, P80T, Y92T, T103K
notes: as for B3
EC50 [1]: 0.05 nM
EC50 [2]: 0.06 nM
EC50 (rat SLITRK6 [3]): 0.29 nM
EC50 (human SLITRK6 on cells [4]): 0.1 nM
EC50 (human SLITRK6 on cells [5]): 0.12 nM
EC50 (human SLITRK6 on cells [31]): 0.18 nM
EC50 (human SLITRK6 on cells [6]): 0.27 nM
EC50 (human SLITRK6 on cells [7]): 0.27 nM
EC50 (human SLITRK6 on cells [8]): 0.14 nM
EC50 (human SLITRK6 on cells [9]): 0.14 nM
EC50 (human SLITRK6 on cells [10]): 0.1 nM
EC50 (human SLITRK6 on cells [11]): 0.87 nM
EC50 (human SLITRK6 on cells [12]): 0.87 nM
Kd [17]: 1.05 nM
koff [17]: 0.000969 s⁻¹
kon [17]: 924000 M⁻¹ s⁻¹
Kd [18]: 4.69 nM
koff [18]: 0.00379 s⁻¹
kon [18]: 809000 M⁻¹ s⁻¹
epitope binning signal [24]: 0.0346
epitope binning signal [25]: 0.0375
epitope binning signal [26]: 0.292
epitope binning signal [27]: 0.285
epitope binning signal [28]: 0.274
epitope binning signal [29]: 0.276
